This note sets out measurements from paper PMC4691890, “Atomic structure of the apoptosome: mechanism of cytochrome c- and dATP-mediated activation of Apaf-1” (Genes & Development, 2015).

Test [1] deals with T1, full-length human Apaf-1 (residues 1–1248) (human, UniProt O14727 1-1248).
T1 construct: Seven copies stand in the apoptosome that forms with CytC and dATP; source: Hi-5 insect cells (baculovirus), purified (Ni-NTA, gel filtration Superose 6)
T1 sequence (looked up): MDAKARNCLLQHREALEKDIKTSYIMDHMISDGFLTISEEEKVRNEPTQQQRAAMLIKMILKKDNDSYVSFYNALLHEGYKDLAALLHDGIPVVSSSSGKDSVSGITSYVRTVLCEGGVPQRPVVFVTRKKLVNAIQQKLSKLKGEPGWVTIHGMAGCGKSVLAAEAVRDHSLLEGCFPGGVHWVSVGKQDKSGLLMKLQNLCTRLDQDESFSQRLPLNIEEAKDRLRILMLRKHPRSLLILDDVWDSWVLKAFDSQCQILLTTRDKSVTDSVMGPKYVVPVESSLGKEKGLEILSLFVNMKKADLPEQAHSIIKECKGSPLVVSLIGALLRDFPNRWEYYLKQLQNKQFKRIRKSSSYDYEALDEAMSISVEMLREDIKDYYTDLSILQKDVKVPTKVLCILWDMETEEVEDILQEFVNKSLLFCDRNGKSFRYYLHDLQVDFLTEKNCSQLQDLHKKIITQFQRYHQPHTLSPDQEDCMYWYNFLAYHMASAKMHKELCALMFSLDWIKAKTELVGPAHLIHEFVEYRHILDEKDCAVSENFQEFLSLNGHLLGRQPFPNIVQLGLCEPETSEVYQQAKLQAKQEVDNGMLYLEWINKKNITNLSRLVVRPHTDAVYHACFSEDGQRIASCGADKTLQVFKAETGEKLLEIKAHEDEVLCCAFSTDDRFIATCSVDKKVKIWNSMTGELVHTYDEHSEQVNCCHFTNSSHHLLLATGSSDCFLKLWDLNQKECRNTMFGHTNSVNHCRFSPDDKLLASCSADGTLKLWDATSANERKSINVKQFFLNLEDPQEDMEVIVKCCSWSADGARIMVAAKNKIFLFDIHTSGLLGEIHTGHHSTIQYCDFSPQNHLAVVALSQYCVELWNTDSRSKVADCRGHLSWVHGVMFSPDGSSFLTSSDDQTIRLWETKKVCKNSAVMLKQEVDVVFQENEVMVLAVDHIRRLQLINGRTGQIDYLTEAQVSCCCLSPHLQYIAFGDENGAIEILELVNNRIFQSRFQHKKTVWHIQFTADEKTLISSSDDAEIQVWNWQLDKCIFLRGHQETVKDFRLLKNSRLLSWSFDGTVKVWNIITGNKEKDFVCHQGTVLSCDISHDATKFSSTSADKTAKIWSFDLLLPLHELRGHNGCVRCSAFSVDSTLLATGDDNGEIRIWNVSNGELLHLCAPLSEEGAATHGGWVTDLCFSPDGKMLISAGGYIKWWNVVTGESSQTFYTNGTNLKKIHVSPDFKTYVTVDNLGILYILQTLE
The test is described as follows: ITC; Apaf-1 4 μM, CytC 60 μM; 100 mM KCl, 20 mM HEPES pH 7.5; 22°C; VP-ITC. The settings on record: both partners purified.

The target of test [2] is T1, full-length human Apaf-1 (residues …). In words: SEC; Apaf-1 incubated with CytC at a molar ratio of 1:2, Superdex-200 increase 5/150; 100 mM KCl, 20 mM HEPES pH 7.5, 5 mM DTT; fractions on SDS-PAGE; no dATP named. The conditions noted are these: both partners purified.

B1: untagged, full-length horse CytC (wild type, recombinant) (natural protein)
chain: not shown
notes: cytochrome c, horse (Equus caballus), untagged, full length; Purification as in Yu et al. 2001; also called cytochrome c; wild-type CytC; source: E. coli BL21 (DE3), coexpressed with the yeast heme lyase CYC3, purified
Usually Kd stands for the equilibrium constant for the complex coming apart. Lower therefore signals a tighter complex. For the molecule B1, in test [1], the Ka was roughly 2.04e+06 M⁻¹ and the Kd is roughly 490 nM.

B2: horse CytC K87W (natural protein)
chain: not shown
notes: cytochrome c, horse, untagged, full length, mutant K87W; source: E. coli BL21 (DE3), coexpressed with the yeast heme lyase CYC3, purified
For B2, the binding result in test [2] is recorded as “binds”.
